{"source": "paper PMC9170038", "data": [{"target": "MS2 coat protein, dlFG mutant (Escherichia phage MS2, UniProt P03612, del68-81insG)", "assay": "4 mM Mg2+; no ligand; RNA-MaP array; 100 mM Tris-HCl pH 7.5, 80 mM KCl, 4 mM MgCl2, 0.1 mg/mL BSA, 1 mM DTT, 0.01 mg/mL yeast tRNA, 0.01% Tween-20; protein 1.5 nM to 3 uM; 37 C (Table S3)", "conditions": "chain copies: 2; label: tethered by stalled RNA polymerase", "units": {"Kd": "nM"}, "values": [{"binder": "Eterna 7734762 (Same State - FMN B) (ssRNA) RNA: UGUACCGAGUAAGGAUAUGUCGUCGAAAGACGAAAUGGAGUGAUGUUCCUUAAACUGCGAAAGCAGACAGAAGGUACUUGGUACU", "Kd": "> 3000"}, {"binder": "Eterna 7653871 (Same State - Theophylline B) (ssRNA) RNA: UGUAUGUGAUUUGAUACCAGACCAGCUGGUGGUGCAUGAGGAACACCCAUGCAGGUUUGGGUCCCUUGGCAGCAAAUCGCAUACU", "Kd": 145}, {"binder": "Eterna 7653873 (Same State - Theophylline B) (ssRNA) RNA: UGUAUGUGAUUUGAUACCAGACCAGCUGGUGGUCCAUGAGGAACACCCAUGGAGGUUUGGGUCCCUUGGCAGCAAAUCGCAUACU", "Kd": 83.2}, {"binder": "Eterna 7739457 (Exclusion - Theophylline B) (ssRNA) RNA: UUAUAUAUAUUAGAUACCAGUUUAAUGGAAACAAAUUAUGUUAUGAGUGAUGUUCAUGUAAGCCCUUGGCAGCUGGUAUGGGUUU", "Kd": "> 3000"}, {"binder": "Eterna 7739340 (Same State - Theophylline A) (ssRNA) RNA: ACCAUCAAAGAUGGCCAGGACUCAACUGAUACCAGAGUGGAGACACUCCCUUGGCAGCAGGUGAGUGAUGUUCACGAGUCCUGGA", "Kd": "> 3000"}, {"binder": "Eterna 1038 (Exclusion - FMN A) (ssRNA) RNA: UCACCGCCUAGUGAUGUUACGCGACUCAGAAAGGAUAUAAUCAAUCUUAGAAGGUUCACACCGUAUGGAUAUUAUCUAUCUCGUU", "Kd": "> 3000"}, {"binder": "Eterna 6146924 (Exclusion NG 1) (ssRNA) RNA: GUGACGGAUGUAGGAUAUGCUGACCAAUGGUCAGCAGAAGGACAUGAGGAUCACCCAUGUCAUCCUUAUAAUAAAUACCGUCAC", "Kd": 13.7}, {"binder": "Eterna 6428572 (Exclusion NG 2) (ssRNA) RNA: GUCUCCGCUCGAGGAUAUAGCUGCAUGUAGUGUCCUGAGGCACAUGAGGAUCACCCAUGUGUAGGCUAGAAGGCGACGGACACU", "Kd": 11}, {"binder": "Eterna 7736465 (Same State - FMN A) (ssRNA) RNA: UUUCUUUUCUUUUGCGAUCCUAUCCCUUAUAAGGAUAUCUAGAAAUAGAGAAGGUAUGCAGUGAUGUUGCUUGGGAUAGGAUCGC", "Kd": "> 3000"}, {"binder": "Eterna 7673920 (Same State - Theophylline B) (ssRNA) RNA: UGUAUGUGAUCUGAUACCAGCGUUGAUAACCUGAGGAUCACCCUGGUAAGGCGAAAGCCACGCCCUUGGCAGCAGAUCGCAUACU", "Kd": 193}, {"binder": "Eterna 7730095 (Same State - Theophylline B) (ssRNA) RNA: UGUAUGUGAUCUGAUACCAGUCCAACUGGUAAACCAUGAGGAUCACCCAUGGAAAAUUGGGACCCUUGGCAGCAGAUCGCAUACU", "Kd": 310}, {"binder": "Eterna 7734716 (Exclusion - FMN B) (ssRNA) RNA: GGAUAGGACACAGGAUAUGGUAGUGAUGUUACCAAACUGGUUAAACAUGUCAGAAAACUGGCAUGACCAGAAGGGUGUCCUAUCG", "Kd": "> 3000"}, {"binder": "Eterna 7741440 (Same State - Theophylline A) (ssRNA) RNA: GGAGUGAUGUUCCAUUUUUAAAUCUCCGAUACCAGUAUGGAAACAUACCCUUGGCAGCGGUAAACCGCAGAUUAGGAAACUAGUC", "Kd": "> 3000"}, {"binder": "Eterna 7716400 (Same State - Theophylline B) (ssRNA) RNA: AUUUGUUUAUGUGAUACCAGACUAAGCAGUGAUGUUGCUUUUAUUUUUGAAUUUUAAAUAGUCCCUUGGCAGCACUAUGUCUGUA", "Kd": "> 3000"}, {"binder": "Eterna 7691377 (Same State - Tryptophan B) (ssRNA) RNA: UAUCUAUGCUCGGCCGCCACUAGGACCGGGAGGUAACUAGUGAUGUUAGUAUCUUCGGCCGCCACUAGGACCGGGAGUGUAGAUA", "Kd": "> 3000"}, {"binder": "Eterna 6439566 (Inverted Small Loop Same State NG 1) (ssRNA) RNA: GGACAUUUACAGAAGGGCAAGCUCGAAAGCGGAGAACGCGAACGAGCUUGCAGGAUAUGUUGAACAUGAGGAUCACCCAUGUCU", "Kd": 8.1}, {"binder": "Eterna 7745160 (Same State - Arginine B) (ssRNA) RNA: GUUAAGUCGCGAAGGAGCGCGAACUAACAACGCAGUGAUGUUGCGUUGUACGUAGUAUAAUCGCAGGUAGGUCGCGCGACAGGCC", "Kd": "> 3000"}, {"binder": "Eterna 7729933 (Exclusion - Tryptophan B) (ssRNA) RNA: GGAUAGGACACGGCCGCCACUUGCUAGGAUACUAGCAACAUUUCCUCUCAUGAGGAUCACCCAUGAAGGACCGGGUGUCCUAUCG", "Kd": 20.8}, {"binder": "Eterna 1225 (Exclusion - Tryptophan A) (ssRNA) RNA: GGAGGCCAGGCCUGCGAAGUGAUGUUUUGACGAGGACCGGUACGGCCGCCACUCGAAUGUUCUAUCAUCGUACGAACUUCUGCGU", "Kd": "> 3000"}, {"binder": "Eterna 7675501 (Same State - Theophylline B) (ssRNA) RNA: CCAUCGCUAUUCGAUACCAGUCAUAAAAUCUUUGGUUAAAUAAAGGAGUGAUGUUCCAAAGACCCUUGGCAGCGAAUAGUGAUGG", "Kd": "> 3000"}, {"binder": "Eterna 1619 (Same State - Theophylline A) (ssRNA) RNA: GUGUAAGUGAUGUUUGCACACACGUCGGAUACCAGAGACUUUAGCCUCCCUUGGCAGCCGCCGGCCAUAAGAGCAAGUCGAUUUA", "Kd": "> 3000"}, {"binder": "Eterna 7730292 (Same State - Arginine B) (ssRNA) RNA: UGUAUGGACUGAAGGAGCGGAAAAUAAACCUGAGGAUCACCCGGGUAAUAGGCGAAAGCCAUCCAGGUAGGUCGCAGUCCAUACU", "Kd": 279}, {"binder": "Eterna 7610184 (Exclusion - Tryptophan B) (ssRNA) RNA: GGAGCUACGUCGGCCGCCACUAGCGGGUAUUGCGUGUACAUGAGGAUCACCCAUGUAAUACGGCCUAGGACCGGGACGUAGCUCC", "Kd": 12}, {"binder": "Eterna 6095051 (Same State NG 3) (ssRNA) RNA: UUAACAUGAGGAUCACCCAUGUAAAGAACGGUUAAUUAAAGUGAGGAUAUACAAAAUUUUAUAUUGUAGAAGGCACUGGGUACA", "Kd": 19.5}, {"binder": "Eterna 6095017 (Exclusion NG 3) (ssRNA) RNA: AAGGACUGUAAUAAUGUAGAAAUACAUGAGGAUCACCCAUGUAAGGAUAUCGUCAGGAAUACUGACGAGAAGGUACAUCAGUCC", "Kd": 16.5}, {"binder": "Eterna 7730917 (Exclusion - Tryptophan A) (ssRNA) RNA: AGACUGUCUUCGGACAGUCCGGACAGCCCGCGAGGACCGGUACGGCCGCCACUCGCGUGAGGAUCACCCAUGCGAGGCUGUCCGA", "Kd": 34.7}, {"binder": "Eterna 7696080 (Exclusion - Tryptophan B) (ssRNA) RNA: UGAUACCAGACGGCCGCCACUAGGACCGGGAGUGAUGUUCCCAAUUUAAAAUGCUCGGCCGCCACUAGGACCGGGUCUGGUAUCU", "Kd": "> 3000"}, {"binder": "Eterna 6381991 (Exclusion NG 1) (ssRNA) RNA: AUGCUUUAUGUAGGAUAUGCAUACGGUACGUAUGCAGAAGGACAUGAGGAUCACCCAUGUAAAUUAUUAUUACAUAUCAUACAU", "Kd": 10.9}, {"binder": "Eterna 7758792 (Exclusion - Tryptophan B) (ssRNA) RNA: UGAUACCAGACGGCCGCCACUCCCGUAAGUCAAAGACUUACGAAGAGGGUUUUUCAGUGAUGUUGGAGGACCGGGUCUGGUAUCU", "Kd": "> 3000"}, {"binder": "Eterna 7722704 (Same State - FMN A) (ssRNA) RNA: GGCAGUGAUGUUGCCUAAGCAACGCAUGCAGAGGAUAUUCGUUCGGGAAGAAGGCUGCAGCGUUCUCUCGUCAGUGAUGUUGGCG", "Kd": "> 3000"}]}]}
